Measurements from the supplement of paper PMC9112550, “Optimization of the antimicrobial peptide Bac7 by deep mutational scanning” (BMC Biology, 2022).

Tested on: Escherichia coli TOP10
Experiment: shrunken log2 fold change of peptide-encoding DNA abundance (4.5 h post-induction vs induction); higher = less antimicrobial activity (less host growth inhibition)
Conditions: time post-induction: 4.5 h; library: site-saturation at positions 5, 18, 19, 20
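Note: peptides expressed intracellularly from a pBAD plasmid library in pooled LB shake-flask culture, induced with 0.3% L-arabinose, DNA abundance read by NGS, three biological replicates, DESeq2 with apeglm shrinkage.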

Sequence | shrunken log2 fold change
RRIRKRPPRLPRPRPRPGYSPRP | -0.447
RRIRKRPPRLPRPRPRPHAFPRP | 0.106
RRIRKRPPRLPRPRPRPHCHPRP | 0.0986
RRIRKRPPRLPRPRPRPHCPPRP | -0.00424
RRIRKRPPRLPRPRPRPHCYPRP | -0.605
RRIRKRPPRLPRPRPRPHFGPRP | -0.067
RRIRKRPPRLPRPRPRPHFRPRP | -0.138
RRIRKRPPRLPRPRPRPHGTPRP | -0.0973
RRIRKRPPRLPRPRPRPHHLPRP | -0.232
RRIRKRPPRLPRPRPRPHHMPRP | -0.0738
RRIRKRPPRLPRPRPRPHHWPRP | 0.706
RRIRKRPPRLPRPRPRPHKFPRP | 0.0822
RRIRKRPPRLPRPRPRPHLRPRP | -0.0961
RRIRKRPPRLPRPRPRPHPDPRP | -0.0313
RRIRKRPPRLPRPRPRPHPEPRP | 0.39
RRIRKRPPRLPRPRPRPHQNPRP | 0.0256
RRIRKRPPRLPRPRPRPHQPPRP | 0.413
RRIRKRPPRLPRPRPRPHQWPRP | 0.264
RRIRKRPPRLPRPRPRPHRIPRP | 0.00291
RRIRKRPPRLPRPRPRPHTIPRP | 0.00577
RRIRKRPPRLPRPRPRPHTKPRP | -0.0306
RRIRKRPPRLPRPRPRPHTRPRP | 0.29
RRIRKRPPRLPRPRPRPHTWPRP | 0.0484
RRIRKRPPRLPRPRPRPHVWPRP | 0.82
RRIRKRPPRLPRPRPRPHWPPRP | 0.31

Sequence | shrunken log2 fold change
RRIRKRPPRLPRPRPRPHYNPRP | -0.428
RRIRKRPPRLPRPRPRPIAWPRP | 0.155
RRIRKRPPRLPRPRPRPICKPRP | 0.363
RRIRKRPPRLPRPRPRPIDKPRP | 0.0797
RRIRKRPPRLPRPRPRPIDLPRP | -0.0822
RRIRKRPPRLPRPRPRPIDTPRP | -0.0729
RRIRKRPPRLPRPRPRPIDWPRP | 0.29
RRIRKRPPRLPRPRPRPIEIPRP | -0.0122
RRIRKRPPRLPRPRPRPIFAPRP | 0.454
RRIRKRPPRLPRPRPRPIFDPRP | 0.205
RRIRKRPPRLPRPRPRPIFEPRP | 0.381
RRIRKRPPRLPRPRPRPIFFPRP | 0.414
RRIRKRPPRLPRPRPRPIFTPRP | 0.118
RRIRKRPPRLPRPRPRPIHKPRP | -0.211
RRIRKRPPRLPRPRPRPIIFPRP | -0.147
RRIRKRPPRLPRPRPRPIIWPRP | 0.0809
RRIRKRPPRLPRPRPRPIKFPRP | -0.131
RRIRKRPPRLPRPRPRPIKQPRP | -0.089
RRIRKRPPRLPRPRPRPIKTPRP | -0.0153
RRIRKRPPRLPRPRPRPILAPRP | 0.0492
RRIRKRPPRLPRPRPRPILDPRP | 0.15
RRIRKRPPRLPRPRPRPINPPRP | 0.0583
RRIRKRPPRLPRPRPRPINQPRP | -0.166
RRIRKRPPRLPRPRPRPIPFPRP | 0.347
RRIRKRPPRLPRPRPRPIPPPRP | 0.385

Sequence | shrunken log2 fold change
RRIRKRPPRLPRPRPRPIPVPRP | -0.193
RRIRKRPPRLPRPRPRPIQLPRP | -0.0418
RRIRKRPPRLPRPRPRPIRAPRP | 0.14
RRIRKRPPRLPRPRPRPISQPRP | 0.113
RRIRKRPPRLPRPRPRPITTPRP | -0.174
RRIRKRPPRLPRPRPRPITWPRP | 0.0399
RRIRKRPPRLPRPRPRPIVCPRP | -0.00674
RRIRKRPPRLPRPRPRPIWKPRP | -0.00277
RRIRKRPPRLPRPRPRPIWLPRP | 0.00836
RRIRKRPPRLPRPRPRPIWWPRP | 0.0844
RRIRKRPPRLPRPRPRPIYNPRP | -0.0567
RRIRKRPPRLPRPRPRPKARPRP | 0.0808
RRIRKRPPRLPRPRPRPKAVPRP | -0.11
RRIRKRPPRLPRPRPRPKAYPRP | 0.0431
RRIRKRPPRLPRPRPRPKCGPRP | 0.0305
RRIRKRPPRLPRPRPRPKCNPRP | -0.0341
RRIRKRPPRLPRPRPRPKCPPRP | 0.165
RRIRKRPPRLPRPRPRPKEHPRP | 0.405
RRIRKRPPRLPRPRPRPKEYPRP | 0.191
RRIRKRPPRLPRPRPRPKFHPRP | 0.161
RRIRKRPPRLPRPRPRPKFPPRP | 0.134
RRIRKRPPRLPRPRPRPKGEPRP | 0.201
RRIRKRPPRLPRPRPRPKGIPRP | 0.106
RRIRKRPPRLPRPRPRPKHPPRP | 0.068
RRIRKRPPRLPRPRPRPKLGPRP | 0.0679

Sequence | shrunken log2 fold change
RRIRKRPPRLPRPRPRPKLMPRP | 0.267
RRIRKRPPRLPRPRPRPKNSPRP | -0.0637
RRIRKRPPRLPRPRPRPKNTPRP | -0.0285
RRIRKRPPRLPRPRPRPKPDPRP | 0.861
RRIRKRPPRLPRPRPRPKQEPRP | -0.104
RRIRKRPPRLPRPRPRPKQIPRP | 0.0984
RRIRKRPPRLPRPRPRPKRMPRP | 0.296
RRIRKRPPRLPRPRPRPKRNPRP | 0.689
RRIRKRPPRLPRPRPRPKRSPRP | 0.667
RRIRKRPPRLPRPRPRPKSDPRP | -0.015
RRIRKRPPRLPRPRPRPKSYPRP | -0.177
RRIRKRPPRLPRPRPRPKTNPRP | 0.485
RRIRKRPPRLPRPRPRPKTWPRP | 0.344
RRIRKRPPRLPRPRPRPKVMPRP | 0.0802
RRIRKRPPRLPRPRPRPKYWPRP | 0.255
RRIRKRPPRLPRPRPRPLANPRP | 0.029
RRIRKRPPRLPRPRPRPLAQPRP | 0.801
RRIRKRPPRLPRPRPRPLCHPRP | 0.252
RRIRKRPPRLPRPRPRPLCPPRP | -0.145
RRIRKRPPRLPRPRPRPLCTPRP | 0.179
RRIRKRPPRLPRPRPRPLDAPRP | 0.748
RRIRKRPPRLPRPRPRPLHYPRP | -0.00227
RRIRKRPPRLPRPRPRPLIDPRP | 0.449
RRIRKRPPRLPRPRPRPLIWPRP | 0.761
RRIRKRPPRLPRPRPRPLKNPRP | 0.211

Sequence | shrunken log2 fold change
RRIRKRPPRLPRPRPRPLKTPRP | -0.151
RRIRKRPPRLPRPRPRPLMLPRP | 0.007
RRIRKRPPRLPRPRPRPLPPPRP | 1.01
RRIRKRPPRLPRPRPRPLQQPRP | 0.26
RRIRKRPPRLPRPRPRPLRCPRP | 0.35
RRIRKRPPRLPRPRPRPLRVPRP | 1.04
RRIRKRPPRLPRPRPRPLSLPRP | -0.131
RRIRKRPPRLPRPRPRPLSRPRP | 0.254
RRIRKRPPRLPRPRPRPLTSPRP | 0.0205
RRIRKRPPRLPRPRPRPLVMPRP | 0.432
RRIRKRPPRLPRPRPRPLYLPRP | -0.17
RRIRKRPPRLPRPRPRPLYRPRP | -0.0664
RRIRKRPPRLPRPRPRPMAAPRP | 0.751
RRIRKRPPRLPRPRPRPMCVPRP | 0.208
RRIRKRPPRLPRPRPRPMDGPRP | 0.231
RRIRKRPPRLPRPRPRPMELPRP | 0.159
RRIRKRPPRLPRPRPRPMEVPRP | 0.101
RRIRKRPPRLPRPRPRPMGEPRP | -0.0199
RRIRKRPPRLPRPRPRPMHMPRP | -0.331
RRIRKRPPRLPRPRPRPMIVPRP | 0.00271
RRIRKRPPRLPRPRPRPMKQPRP | -0.108
RRIRKRPPRLPRPRPRPMKWPRP | -0.0374
RRIRKRPPRLPRPRPRPMLPPRP | 0.349
RRIRKRPPRLPRPRPRPMNCPRP | -0.014
RRIRKRPPRLPRPRPRPMNVPRP | 0.13

Sequence | shrunken log2 fold change
RRIRKRPPRLPRPRPRPMSKPRP | 0.388
RRIRKRPPRLPRPRPRPMTCPRP | 0.0478
RRIRKRPPRLPRPRPRPMTLPRP | -0.0281
RRIRKRPPRLPRPRPRPMVAPRP | 0.629
RRIRKRPPRLPRPRPRPMVGPRP | 0.0659
RRIRKRPPRLPRPRPRPMWRPRP | 0.481
RRIRKRPPRLPRPRPRPMYMPRP | -0.103
RRIRKRPPRLPRPRPRPMYTPRP | -0.0983
RRIRKRPPRLPRPRPRPNAIPRP | 0.0998
RRIRKRPPRLPRPRPRPNDEPRP | 0.179
RRIRKRPPRLPRPRPRPNDRPRP | -0.0503
RRIRKRPPRLPRPRPRPNGFPRP | 0.49
RRIRKRPPRLPRPRPRPNHIPRP | -0.358
RRIRKRPPRLPRPRPRPNIPPRP | -0.237
RRIRKRPPRLPRPRPRPNKGPRP | 0.0232
RRIRKRPPRLPRPRPRPNKHPRP | -0.122
RRIRKRPPRLPRPRPRPNKRPRP | -0.0102
RRIRKRPPRLPRPRPRPNLMPRP | 3.86
RRIRKRPPRLPRPRPRPNNAPRP | 0.243
RRIRKRPPRLPRPRPRPNNSPRP | -0.371
RRIRKRPPRLPRPRPRPNPCPRP | 0.117
RRIRKRPPRLPRPRPRPNPDPRP | 0.383
RRIRKRPPRLPRPRPRPNQCPRP | 0.0387
RRIRKRPPRLPRPRPRPNQLPRP | -0.33
RRIRKRPPRLPRPRPRPNQNPRP | 1.18
